This note sets out measurements from patent US20100092561A1 (published 2010).

Starred links: 1 amine or outer side, 2 acyl side, 3 side chain; linkers in the order of their positions; H or OH if unused. Non-standard residues stand in square brackets, D forms with d. No end group written: not given here. βMeF(S) = S-β-methyl-L-phenylalanine, (2S,3S)-β-methylphenylalanine, C[C@@H](c1ccccc1)[C@H](N[*:1])C(=O)[*:2]; Phe(3R-Me) = C[C@H](c1ccccc1)[C@H](N)C(=O)O

For this assay, the target named is NK1 receptor (rabbit). Briefly: cell-based or functional assay.

As for RPKPQQF[βMeF(S)]GLM (not fully specified (C-terminus); ends and bridges not checked) [8S-(βMeF)SP], the “biological activity relative to SP (rabbit iris sphincter contraction)” value worked out at 10 fold reduction. As for RPKPQQF[Phe(3R-Me)]GLM (not fully specified (C-terminus); ends and bridges not checked) [8R-(βMeF)SP], the “biological activity relative to SP (rabbit iris sphincter contraction)” value amounted to 4 fold enhancement and the “concentration at half maximal contraction (EC50), rabbit iris sphincter muscle” value amounted to 0.15 nM. For RPKPQQ[Phe(3R-Me)][Phe(3R-Me)]GLM (not fully specified (C-terminus); ends and bridges not checked) [7R,8R-(βMeF)2SP], in that order: 10 fold reduction and 10 nM.
